B1: Chromatin assembly factor 1 subunit A (Schizosaccharomyces pombe (strain ATCC 38366 / 972)), Q1MTN9 (parent)
chain: MNSESVDSDVAASTSNKGNELCSSSTDITSLSVSSPNESVIHSSHSASEADEYVCKLSYEGNRKKRIYNGSAEAGKEKKLQKQRAQEERIRQKEAERLKREKERQQREQEKKLREQEKIAAKKMKELEKLEKERIRLQEQQRRKEERDQKLREKEEAQRLRQEQILNKERQQLKLNNFFTKGVEKRIAPNENFVADKTDELNEFEKEFRPFFIKHQMSLSKYPSPNESDSFLDEVLSTSKSYPLKLNDIFTPSDAVSSANSLGVSNRNSENEVRQLMSAYQDPSVSKPQEILSCLSQIPIKFIFFYQDVRPPYFGSYTKTHSHGSNVLLNPWLEDEDIDYTYDSEAEWVADEEDDGEDLESEDEEVDNSDDIVEDGDNAFVDDEDDDKDSVNASNTHRSSGPLEVIVEGPVWDSKFLPDFNCLSLIEPISSFSASTYLQIDPKEDLWASQDTAPASSGMTIGPTSSLSDDLQVRFPSEDIPKFIEYVRNSHDNKVFLIENLRHMFPYVTKNIISETLGKVAVRKGKSVSDGWIIKENFASLLSS
partner: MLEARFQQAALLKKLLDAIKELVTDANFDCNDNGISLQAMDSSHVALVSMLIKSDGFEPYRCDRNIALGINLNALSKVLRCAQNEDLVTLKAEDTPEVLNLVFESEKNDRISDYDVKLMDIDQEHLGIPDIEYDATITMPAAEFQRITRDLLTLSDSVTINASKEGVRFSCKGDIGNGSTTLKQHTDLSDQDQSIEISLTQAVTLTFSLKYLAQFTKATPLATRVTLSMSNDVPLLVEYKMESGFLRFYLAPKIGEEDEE

Variants of: B1
Conditions: with pcna_schpo pcn1, Q03392

| Variant | effect of a mutation on the interaction |
| --- | --- |
| Q172A;L175A;F178A;F179A | disrupting interaction strength |
